From patent US20240166760A1 (UNIVERSITY OF PITTSBURGH OF THE COMMONWEALTH SYSTEM OF …, published 2024)
Changes are numbered by the printed parent chain.

Legend:
[1] = molecular target: T1, human CEACAM6 on Freestyle 293F cells (human, UniProt P40199 35-320); experiment: flow cytometry on transfected HEK293F cells
T1 construct: whole, on cells; Gene carries a FLAG-tag at the C-terminal; Transiently expressed; also called CD66c
T1 sequence (looked up): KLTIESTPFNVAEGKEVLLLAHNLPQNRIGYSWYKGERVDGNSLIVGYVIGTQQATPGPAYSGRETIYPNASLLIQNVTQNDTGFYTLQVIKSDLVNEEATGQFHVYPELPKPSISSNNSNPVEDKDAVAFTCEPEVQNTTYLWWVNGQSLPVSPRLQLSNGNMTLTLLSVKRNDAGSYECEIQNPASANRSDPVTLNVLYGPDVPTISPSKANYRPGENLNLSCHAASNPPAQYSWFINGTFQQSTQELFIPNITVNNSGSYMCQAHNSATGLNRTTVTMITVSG
Description: (§1) To determine the cell surface expression levels of CEACAM5 or CEACAM family proteins, the cells were stained with PE-conjugated anti-CEACAM5 IgG1 (Miltenyi Biotec, 130-114-217) or PE-conjugated anti-FLAG mouse antibody (Miltenyi Biotec, 130-101-576). To confirm cell surface binding of selected antibodies, cells were treated with a hIgG1 having the CDRs of Clone #1, a hIgG1 having the CDRs of Clone #2, or the Clone #1 Fab for 1 hour at 4° C. and then stained with Alexa647-conjugated goat anti-human IgG (Invitrogen, A21445) or FITC conjugated-goat anti-human kappa light chain (Invitrogen, A18854) for 0.5 hours at 4° C. For the internalization assays, cells (1×10⁵ cells/well in 96-well plate) were treated with Alexa488-labeled antibodies for durations between 0 and 30 hours. After incubation of antibodies, cells were washed with cold PBS, and then the remained cell surface binding antibodies were analyzed using Alexa488 fluorescence. For CAR expression on anti-CEACAM5 CAR-T cells, CD4⁺ T or CD8⁺ T cells were gated using APC-conjugated anti-human CD4 antibody (ebioscience, 17-0049-42) and eFluor450-conjugated anti-human CD8 antibody (ebioscience, 48-0088-42), and CAR expression was examined using FITC-labeled recombinant Protein L (Acrobiosystems, RPL-PF141).

[2] = molecular target: T2, human CEACAM21 on Freestyle 293F cells (human, UniProt Q3KPI0 35-293); experiment: flow cytometry on transfected HEK293F cells
T2 construct: whole, on cells; Gene carries a FLAG-tag at the C-terminal; Transiently expressed
T2 sequence (Q3KPI0 35-293): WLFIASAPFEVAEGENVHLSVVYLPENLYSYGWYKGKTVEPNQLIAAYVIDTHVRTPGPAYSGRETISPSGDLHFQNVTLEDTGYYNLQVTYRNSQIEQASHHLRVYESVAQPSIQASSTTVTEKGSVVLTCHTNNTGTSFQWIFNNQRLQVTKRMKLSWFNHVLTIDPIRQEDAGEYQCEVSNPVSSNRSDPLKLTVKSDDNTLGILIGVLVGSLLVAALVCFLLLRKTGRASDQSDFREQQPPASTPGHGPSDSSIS
Description: as §1

[3] = molecular target: T3, human CEACAM7 on Freestyle 293F cells (human, UniProt Q14002 36-242); experiment: flow cytometry on transfected HEK293F cells
T3 construct: whole, on cells; Gene carries a FLAG-tag at the C-terminal; Transiently expressed
T3 sequence (looked up): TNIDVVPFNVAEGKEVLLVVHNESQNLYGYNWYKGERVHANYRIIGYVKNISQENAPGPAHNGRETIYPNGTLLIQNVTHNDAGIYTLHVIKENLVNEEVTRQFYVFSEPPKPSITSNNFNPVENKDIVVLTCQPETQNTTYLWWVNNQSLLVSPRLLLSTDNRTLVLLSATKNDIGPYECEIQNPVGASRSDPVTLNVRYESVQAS
Description: as §1

[4] = molecular target: T4, human CEACAM18 on Freestyle 293F cells (human, UniProt A8MTB9 31-384); experiment: flow cytometry on transfected HEK293F cells
T4 construct: whole, on cells; Gene carries a FLAG-tag at the C-terminal; Transiently expressed
T4 sequence (looked up): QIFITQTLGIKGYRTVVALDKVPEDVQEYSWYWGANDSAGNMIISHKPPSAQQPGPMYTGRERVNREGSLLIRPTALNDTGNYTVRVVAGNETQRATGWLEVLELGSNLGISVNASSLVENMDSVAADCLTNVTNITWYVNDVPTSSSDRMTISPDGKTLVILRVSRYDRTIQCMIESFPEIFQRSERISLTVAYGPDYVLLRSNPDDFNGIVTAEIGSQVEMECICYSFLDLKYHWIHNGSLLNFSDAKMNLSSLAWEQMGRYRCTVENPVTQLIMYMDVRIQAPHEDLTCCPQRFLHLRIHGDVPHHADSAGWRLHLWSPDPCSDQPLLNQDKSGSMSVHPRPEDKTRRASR
Description: as §1

[5] = molecular target: T5, human CEACAM20 on Freestyle 293F cells (human, UniProt Q6UY09 31-596); experiment: flow cytometry on transfected HEK293F cells
T5 construct: whole, on cells; Gene carries a FLAG-tag at the C-terminal; Transiently expressed
T5 sequence (Q6UY09 31-596): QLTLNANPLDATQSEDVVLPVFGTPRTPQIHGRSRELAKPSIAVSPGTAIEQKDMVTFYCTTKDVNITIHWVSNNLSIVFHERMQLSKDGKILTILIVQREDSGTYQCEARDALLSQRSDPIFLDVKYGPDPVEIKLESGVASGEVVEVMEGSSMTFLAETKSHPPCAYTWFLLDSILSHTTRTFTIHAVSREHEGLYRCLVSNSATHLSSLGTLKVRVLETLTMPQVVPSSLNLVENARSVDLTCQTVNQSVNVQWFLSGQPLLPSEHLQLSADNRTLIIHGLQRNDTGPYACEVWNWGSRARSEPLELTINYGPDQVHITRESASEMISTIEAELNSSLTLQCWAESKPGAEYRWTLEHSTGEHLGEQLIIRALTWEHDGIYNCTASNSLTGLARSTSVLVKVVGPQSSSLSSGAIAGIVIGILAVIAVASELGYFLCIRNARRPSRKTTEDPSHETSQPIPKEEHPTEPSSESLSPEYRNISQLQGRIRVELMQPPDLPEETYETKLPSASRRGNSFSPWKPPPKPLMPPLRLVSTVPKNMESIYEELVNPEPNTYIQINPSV
Description: as §1

[6] = molecular target: T6, human CEACAM8 on Freestyle 293F cells (human, UniProt P31997 35-320); experiment: flow cytometry on transfected HEK293F cells
T6 construct: whole, on cells; Gene carries a FLAG-tag at the C-terminal; Transiently expressed
T6 sequence (looked up): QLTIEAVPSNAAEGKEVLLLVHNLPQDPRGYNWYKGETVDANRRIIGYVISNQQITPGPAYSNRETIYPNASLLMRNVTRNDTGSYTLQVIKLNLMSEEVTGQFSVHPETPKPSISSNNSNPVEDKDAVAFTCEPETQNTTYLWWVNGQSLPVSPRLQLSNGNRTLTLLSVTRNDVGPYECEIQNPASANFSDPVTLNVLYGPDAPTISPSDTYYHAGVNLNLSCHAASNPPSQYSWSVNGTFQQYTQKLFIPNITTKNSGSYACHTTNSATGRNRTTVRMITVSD
Description: as §1

[7] = molecular target: T7, human CEACAM16 on Freestyle 293F cells (human, UniProt Q2WEN9 21-425); experiment: flow cytometry on transfected HEK293F cells
T7 construct: whole, on cells; Gene carries a FLAG-tag at the C-terminal; Transiently expressed
T7 sequence (looked up): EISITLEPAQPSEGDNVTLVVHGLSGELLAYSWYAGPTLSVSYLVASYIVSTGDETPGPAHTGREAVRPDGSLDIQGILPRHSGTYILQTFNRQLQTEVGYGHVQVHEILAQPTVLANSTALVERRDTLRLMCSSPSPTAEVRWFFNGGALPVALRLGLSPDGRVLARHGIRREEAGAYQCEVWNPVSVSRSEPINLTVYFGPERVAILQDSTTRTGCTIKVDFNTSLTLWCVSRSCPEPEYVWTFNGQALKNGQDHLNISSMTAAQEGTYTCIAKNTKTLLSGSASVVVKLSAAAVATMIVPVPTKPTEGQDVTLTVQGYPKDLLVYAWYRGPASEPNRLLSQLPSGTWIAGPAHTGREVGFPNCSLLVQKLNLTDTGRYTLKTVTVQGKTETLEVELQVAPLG
Description: as §1

[8] = molecular target: T8, human CEACAM1 on Freestyle 293F cells (human, UniProt P13688 35-526); experiment: flow cytometry on transfected HEK293F cells
T8 construct: whole, on cells; Gene carries a FLAG-tag at the C-terminal; Transiently expressed
T8 sequence (looked up): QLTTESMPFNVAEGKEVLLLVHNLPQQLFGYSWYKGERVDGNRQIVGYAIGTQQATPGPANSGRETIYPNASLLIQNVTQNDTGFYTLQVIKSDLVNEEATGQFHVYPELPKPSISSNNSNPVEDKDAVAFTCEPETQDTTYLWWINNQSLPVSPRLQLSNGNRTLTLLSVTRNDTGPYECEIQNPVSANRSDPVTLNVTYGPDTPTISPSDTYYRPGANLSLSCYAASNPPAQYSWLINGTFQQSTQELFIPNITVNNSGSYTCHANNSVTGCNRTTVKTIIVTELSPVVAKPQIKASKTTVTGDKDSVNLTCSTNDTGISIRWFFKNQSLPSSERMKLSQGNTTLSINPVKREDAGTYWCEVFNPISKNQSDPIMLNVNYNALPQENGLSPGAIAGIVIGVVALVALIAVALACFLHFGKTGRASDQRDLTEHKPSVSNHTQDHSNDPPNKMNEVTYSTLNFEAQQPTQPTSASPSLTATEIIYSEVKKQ
Description: as §1

[9] = molecular target: T9, Human IgG1 Fc-fused CEACAM5 A3B3 (residues 501-682) (human, UniProt P06731 501-682); experiment: indirect ELISA, antigen coated on plate
T9 construct: Expressed in Freestyle HEK cells and N-glycosylated; also called CEACAM5 A3B3-Fc; A3B3-Fc; not shown: human immunoglobulin 1 Fc region (hIgG1 Fc)
T9 sequence: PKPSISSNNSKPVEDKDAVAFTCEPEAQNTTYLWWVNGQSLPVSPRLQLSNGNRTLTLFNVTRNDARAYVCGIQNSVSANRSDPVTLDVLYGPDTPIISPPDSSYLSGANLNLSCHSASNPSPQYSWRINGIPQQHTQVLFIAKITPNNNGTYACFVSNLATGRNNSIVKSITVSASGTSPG
Description: (§2) Binding and specificity of scFv, Fab, or IgG to CEACAM related proteins were analyzed through indirect ELISA. Briefly, Fc-fused CEACAM5 polypeptides, CEACAM6 polypeptides, extra-cellular domain of CEACAM5 (R&D systems, 4128-CM), CEACAM6 (R&D systems, 3934-CM), or cynomolgus CEACAM5 (Sino biological, 90891-C08H) was coated on a 96 well plate (Corning, 3690) at 200 ng/well (50 μL volume) in PBS for 2 hours at room temperature. Blocking was carried out with 3% BSA in PBS for overnight at 4° C. Next day, various concentration of scFv, Fab, or IgG was treated to antigen coated plates and incubated for 1 hour at room temperature. After washing three times, anti-FLAG mouse antibody (M2 clone)-HRP conjugated (Sigma, A8592, 1:3000 dilution) or anti-human kappa goat antibody-HRP conjugated (Invitrogen, A18853, 1:3000 dilution) was treated for binding detection. Same volume of TMB (Thermo, PI34028) was added as a substrate, and then enzymatic reaction was stopped by adding of 2N sulfonic acid. The monomeric Fc fused-CD16a (Fc γRIIIa), CD64 (Fc γRIa) and CD32 (Fc γRIIa) were obtained from Prof. Wei Li (University of Pittsburgh, PA) and used for Fc gamma receptor (FcγR) binding test.

[10] = molecular target: T9, Human IgG1 Fc-fused CEACAM5 A3B3 …; experiment: SPR (BIAcore)
[11] = molecular target: T10, Human IgG1 Fc-fused CEACAM5 A3B3 (residues 501-682) (UniProt P06731 501-682); experiment: SPR (Biacore)
T10 chain: T9 sequence

[12] = molecular target: T11, Human IgG1 Fc-fused CEACAM5 A1B1 (residues 145-322) (human, UniProt P06731 145-322); experiment: indirect ELISA / BIAcore
T11 construct: also called CEACAM5 A1B1-Fc; A1B1 domains of CEACAM5; not shown: human immunoglobulin 1 Fc region (hIgG1 Fc)
T11 sequence: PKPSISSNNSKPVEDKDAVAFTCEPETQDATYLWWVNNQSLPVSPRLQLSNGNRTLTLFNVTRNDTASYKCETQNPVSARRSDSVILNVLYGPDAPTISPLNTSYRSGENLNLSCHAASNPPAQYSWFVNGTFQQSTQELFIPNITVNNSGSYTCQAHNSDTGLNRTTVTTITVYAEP

[13] = molecular target: T12, Human IgG1 Fc-fused CEACAM5 A2B2 (residues 323-500) (human, UniProt P06731 323-500); experiment: indirect ELISA / BIAcore
T12 construct: also called CEACAM5 A2B2-Fc; A2B2 domains of CEACAM5; not shown: human immunoglobulin 1 Fc region (hIgG1 Fc)
T12 chain: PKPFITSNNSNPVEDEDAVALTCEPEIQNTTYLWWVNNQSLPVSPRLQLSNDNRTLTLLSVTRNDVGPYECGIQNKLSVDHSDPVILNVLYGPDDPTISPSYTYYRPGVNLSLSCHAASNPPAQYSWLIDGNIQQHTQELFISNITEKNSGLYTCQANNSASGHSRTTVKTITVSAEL

[14] = molecular target: T13, Fc-fused CEACAM5 A3B3 domain N580Q mutant (human, UniProt P06731 501-682); experiment: indirect ELISA
T13 construct: N-glycosylation site mutant of A3B3-Fc; not shown: human IgG1 Fc carrier and its junction to A3B3
T13 chain: T9 sequence with N80Q
Description: as §2, with “test. […]” for “test.”

B1: Clone #1 Fab (1G9 Fab) (Fab, V domains shown)
VH: QVQLVESGGGLVKPGGSLRLSCAASGFTFSDYYMSWIRQAPGKGLEWVSYISSSGSTIYYADSVKGRFTISRDNAKNSLYLQMNSLRAEDTAVYYCARIGRYSYGLRSYYYYGMDVWGQGTTVTVSS
VL: DIQMTQSPSSLSASVGDRVTITCRASQSISSYLNWYQQKPGKAPKLLIYAASSLQSGVPSRFSGSGSGTDFTLTISSLQPEDFGVYYCMQALQTPVTFGQGTRLEIKR
notes: Human Fab from a phage library (IGHV3-11 / IGKV1-39 frameworks), made in E. coli and purified on Ni-NTA
binding result [1]: no binding
binding result [2]: no binding
binding result [3]: no binding
binding result [4]: no binding
binding result [5]: no binding
binding result [6]: no binding
binding result [7]: no binding
binding result [8]: no binding
EC50 [9]: ~6 nM
Kd [10]: 3 nM
Kd [11]: 1.91 nM
binding result [12]: no binding
binding result [13]: no binding
binding result [14]: binds
